Measured values: patent US20040097712A1 (Amgen, published 2004)

Key:
[1] = biological target: T1, human sIL-1R type II (1+2+3 domain) (human, UniProt P27930 14-343); experiment: ELISA, plates coated with the protein, anti-human Fc-HRP detection
T1 construct: extracellular domain; also called Hu sIL-1RII; human type II receptor
T1 sequence (looked up): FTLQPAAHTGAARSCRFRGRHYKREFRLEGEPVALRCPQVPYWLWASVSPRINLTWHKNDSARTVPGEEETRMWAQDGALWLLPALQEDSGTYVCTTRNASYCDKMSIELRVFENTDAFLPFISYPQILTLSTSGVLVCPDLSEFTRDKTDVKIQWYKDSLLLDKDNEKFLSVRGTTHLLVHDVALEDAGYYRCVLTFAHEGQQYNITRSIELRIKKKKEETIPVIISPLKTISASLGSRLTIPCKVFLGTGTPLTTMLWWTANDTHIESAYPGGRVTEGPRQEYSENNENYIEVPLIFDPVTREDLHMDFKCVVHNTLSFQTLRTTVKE
Excerpt: (§1) The antibodies were subjected to a preliminary epitope sorting experiment. ELISA plates were coated with human sIL-1R1 (1+2+3 domain), truncated human sIL-1R1 (1+2 domain), rat sIL-1R1, human sIL-1R type II, and ovalbumin (negative control). Antibody binding was detected with a horseradish peroxidase-conjugated anti-Human Fc antibody (Pierce Chemical Co., Rockford, Ill.). A check mark (√) in Table 2 represents a positive result for binding; “X” represents a negative result.

[2] = biological target: T2, rat sIL-1R1 (1+2+3 domain) (rat, UniProt Q02955 20-338); experiment: as above
T2 construct: extracellular domain
T2 sequence (looked up): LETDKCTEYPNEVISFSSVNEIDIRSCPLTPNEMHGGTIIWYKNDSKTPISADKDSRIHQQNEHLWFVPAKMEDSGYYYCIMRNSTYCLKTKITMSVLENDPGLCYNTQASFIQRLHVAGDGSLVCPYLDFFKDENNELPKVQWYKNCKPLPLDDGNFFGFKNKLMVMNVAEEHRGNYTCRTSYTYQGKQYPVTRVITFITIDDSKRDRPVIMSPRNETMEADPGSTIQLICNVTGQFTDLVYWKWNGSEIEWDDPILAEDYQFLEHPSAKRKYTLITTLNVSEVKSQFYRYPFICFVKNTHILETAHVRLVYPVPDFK
Excerpt: as §1

[3] = biological target: T3, ovalbumin (negative control) (UniProt P01012 2-386); experiment: as above
T3 construct: also called OA
T3 sequence (looked up): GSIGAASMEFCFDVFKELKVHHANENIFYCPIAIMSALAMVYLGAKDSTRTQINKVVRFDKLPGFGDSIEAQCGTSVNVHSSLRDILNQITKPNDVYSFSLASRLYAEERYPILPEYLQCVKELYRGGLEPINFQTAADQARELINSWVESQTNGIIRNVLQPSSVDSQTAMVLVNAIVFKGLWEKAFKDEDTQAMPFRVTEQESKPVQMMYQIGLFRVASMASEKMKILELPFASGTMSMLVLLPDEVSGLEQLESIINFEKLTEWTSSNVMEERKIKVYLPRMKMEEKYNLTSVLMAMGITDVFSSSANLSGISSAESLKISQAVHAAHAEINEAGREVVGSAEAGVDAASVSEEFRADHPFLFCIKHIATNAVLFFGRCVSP
Excerpt: as §1

[4] = biological target: T4, IL-1R1 on human cells (primary human chondrocytes; human whole blood) (human, UniProt P14778 18-569); experiment: cell-based or functional assay
T4 sequence (looked up): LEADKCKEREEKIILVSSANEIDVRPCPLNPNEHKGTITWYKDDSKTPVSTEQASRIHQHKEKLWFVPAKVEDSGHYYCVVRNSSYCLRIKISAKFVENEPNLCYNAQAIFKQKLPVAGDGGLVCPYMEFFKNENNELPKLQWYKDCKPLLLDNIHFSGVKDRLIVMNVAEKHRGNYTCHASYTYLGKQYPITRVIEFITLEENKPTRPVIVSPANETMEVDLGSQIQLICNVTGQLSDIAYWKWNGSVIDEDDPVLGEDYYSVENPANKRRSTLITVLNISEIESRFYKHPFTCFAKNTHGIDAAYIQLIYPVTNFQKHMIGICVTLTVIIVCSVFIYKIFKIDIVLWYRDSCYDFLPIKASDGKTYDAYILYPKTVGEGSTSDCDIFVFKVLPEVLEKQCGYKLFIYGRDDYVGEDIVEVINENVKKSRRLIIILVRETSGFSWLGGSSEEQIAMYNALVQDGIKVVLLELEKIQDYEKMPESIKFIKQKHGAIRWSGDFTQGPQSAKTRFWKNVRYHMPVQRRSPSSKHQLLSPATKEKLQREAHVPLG

[5] = biological target: T4, IL-1R1 on human cells (primary human …); experiment: cell-based or functional assay; remark: listed apart in the source
[6] = biological target: T4, IL-1R1 on human cells (primary human …); experiment: cell-based or functional assay; remark: listed apart in the source

- binding result [1]: no binding
- binding result [2]: no binding
- binding result [3]: no binding
- IC50, inhibition of IL-1β induced IL-6 production in primary human chondrocytes (Table 4B) [4]: 0.007 nM
- IC50, inhibition of IL-1β induced IL-6 production in primary human chondrocytes (Table 4A) [5]: 0.016 nM
- IC50, inhibition of IL-1-induced IL-6 production in human whole blood, composite (pooled data) [6]: 0.126 nM
- IC50, inhibition of IL-1-induced IL-6 production in human whole blood, donor 1047 [6]: 0.126 nM
- IC50, inhibition of IL-1-induced IL-6 production in human whole blood, donor 1319 [6]: 0.111 nM
B1: 15C4 human anti-IL-1R1 monoclonal antibody (purified from hybridoma supernatant) (antibody, V domains shown)
VH: EVQLMQSGAEVKKPGESLKISCKGSGYSFSFHWIAWVRQMPGKGLEWMGIIHPGASDTRYSPSFQGQVTISADNSNSATYLQWSSLKASDTAMYFCARQRELDYFDYWGQGTLVTVSS
VL: EIVLTQSPDFQSVTPKEKVTITCRASQSIGSSLHWYQQKPDQSPKLLIKYASQSFSGVPSRFSGSGSGTDFTLTINSLEAEDAAAYYCHQSSSLPLTFGGGTKVEIK
notes: Human IgG kappa from HuMab mice
